EC50 data for 18 molecules are collected here from patent US20240116985A1 (published 2024).

Starred links: 1 amine or outer side, 2 acyl side, 3 side chain; linkers in the order of their positions; H or OH if unused. Positions of bridges follow the written chain, without caps; N, C: chain ends. Non-standard residues stand in square brackets, D forms with d. Primed or numbered codes have the meaning given here. B5(10) = 2-amino-2-(pent-4-en-1-yl)hept-6-enoic acid, bis(4-pentenyl)glycine, stitching residue bearing both staples, C=CCCCC(CCCC=C)(N[*:1])C(=O)[*:2]; B5(4) = 2,2-bis(4-pentenyl)glycine = 2-amino-2-(pent-4-en-1-yl)hept-6-enoic acid (stitching residue), C=CCCCC(CCCC=C)(N[*:1])C(=O)[*:2]; PyrS(3) = (S)-1-((allyloxy)carbonyl)-3-aminopyrrolidine-3-carboxylic acid, stapling residue, C=CCOC(=O)N1CC[C@@](N[*:1])(C(=O)[*:2])C1; B5(33) = 2-amino-2-(pent-4-en-1-yl)hept-6-enoic acid (bis-pentenylglycine, two olefin side chains), C=CCCCC(CCCC=C)(N[*:1])C(=O)[*:2]; PyrS″ = (S)-1-((allyloxy)carbonyl)-3-aminopyrrolidine-3-carboxylic acid (stapling residue), C=CCOC(=O)N1CC[C@@](N[*:1])(C(=O)[*:2])C1; SeN = (S)-5-(((allyloxy)carbonyl)(methyl)amino)-2-amino-2-methylpentanoic acid, C=CCOC(=O)N(C)CCC[C@](C)(N[*:1])C(=O)[*:2]; PyrS = (S)-1-((allyloxy)carbonyl)-3-aminopyrrolidine-3-carboxylic acid, C=CCOC(=O)N1CC[C@@](N[*:1])(C(=O)[*:2])C1; Phe(3-CONH2) = NC(=O)c1cccc(C[C@H](N)C(=O)O)c1; Phe(2-CONH2) = NC(=O)c1ccccc1C[C@H](N)C(=O)O; Phe(3-OMe) = COc1cccc(C[C@H](N)C(=O)O)c1; 1Nal = N[C@@H](Cc1cccc2ccccc12)C(=O)O; 2Nal = N[C@@H](Cc1ccc2ccccc2c1)C(=O)O; hTyr = N[C@@H](CCc1ccc(O)cc1)C(=O)O; αAllylPro = C=CC[C@@]1(C(=O)O)CCCN1; hPhe = N[C@@H](CCc1ccccc1)C(=O)O; R8 = C=CCCCCCC[C@@](C)(N)C(=O)O; S8 = C=CCCCCCC[C@](C)(N)C(=O)O

The chains are these.
T1: full-length beta-Catenin (Uniprot ID P35222) (Homo sapiens (Human), UniProt P35222 2-781)
T1 construct: also called B-Catenin; bCat
T1 sequence: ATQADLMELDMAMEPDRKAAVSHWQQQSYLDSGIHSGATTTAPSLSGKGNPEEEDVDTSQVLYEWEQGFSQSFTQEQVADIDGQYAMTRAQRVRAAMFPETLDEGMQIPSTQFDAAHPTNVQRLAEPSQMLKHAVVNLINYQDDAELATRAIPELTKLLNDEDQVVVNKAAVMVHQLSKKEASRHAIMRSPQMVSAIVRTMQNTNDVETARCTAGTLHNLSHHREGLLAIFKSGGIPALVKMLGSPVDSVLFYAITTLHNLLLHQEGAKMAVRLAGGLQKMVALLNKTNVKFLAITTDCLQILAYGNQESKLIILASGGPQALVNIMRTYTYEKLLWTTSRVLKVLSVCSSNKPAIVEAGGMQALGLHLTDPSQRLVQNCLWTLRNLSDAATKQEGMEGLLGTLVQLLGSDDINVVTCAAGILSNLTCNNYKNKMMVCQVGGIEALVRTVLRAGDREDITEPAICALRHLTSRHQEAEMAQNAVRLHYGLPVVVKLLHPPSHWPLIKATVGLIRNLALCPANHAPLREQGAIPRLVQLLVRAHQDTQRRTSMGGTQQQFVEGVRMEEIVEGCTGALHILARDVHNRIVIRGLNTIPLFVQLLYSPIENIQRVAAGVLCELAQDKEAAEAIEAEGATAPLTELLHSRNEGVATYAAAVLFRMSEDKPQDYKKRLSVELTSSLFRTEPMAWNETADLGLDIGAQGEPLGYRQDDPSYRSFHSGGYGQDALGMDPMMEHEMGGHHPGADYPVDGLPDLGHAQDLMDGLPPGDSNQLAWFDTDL

B1: I-128 (peptide)
peptide: Ac-[αAllylPro]DA[B5(10)]DEAAFV[S8]FW-NH2
modifications: staple 1-4, 4-11
notes: Stitched (two-staple) peptide composition
B2: I-104 (peptide)
peptide: Ac-FDA[R8]DDAA[Phe(3-OMe)]V[PyrS″]FWQ-NH2
modifications: staple 4-11; not fully specified; printed as Ac-Phe-Asp-Ala-R8-Asp-Asp-Ala-Ala-3OMeF-Val-PyrS-Phe-Trp-Gln-NH2
notes: Stapled peptide composition
B3: I-106 (peptide)
peptide: Ac-FDA[R8]DDAAFV[PyrS][Phe(2-CONH2)]WQ-NH2
modifications: staple 4-11; not fully specified; printed as Ac-Phe-Asp-Ala-R8-Asp-Asp-Ala-Ala-Phe-Val-PyrS-2CBMF-Trp-Gln-NH2
notes: Stapled peptide composition
B4: I-109 (peptide)
peptide: Ac-FDA[R8]DDAA[Phe(3-CONH2)]V[PyrS″]FWQ-NH2
modifications: staple 4-11; not fully specified; printed as Ac-Phe-Asp-Ala-R8-Asp-Asp-Ala-Ala-3CBMF-Val-PyrS-Phe-Trp-Gln-NH2
notes: Stapled peptide composition
B5: I-119 (peptide)
peptide: Ac-FDA[R8]DDAA[hTyr]V[PyrS(3)]FWQ-NH2
modifications: staple 4-11
notes: Stapled peptide composition; same description as I-120, separate earlier-eluting HPLC peak (staple isomer)
B6: I-105 (peptide)
peptide: Ac-FDA[R8]DDAAFV[PyrS″][Phe(2-CONH2)]WQ-NH2
modifications: staple 4-11; not fully specified; printed as Ac-Phe-Asp-Ala-R8-Asp-Asp-Ala-Ala-Phe-Val-PyrS-2CBMF-Trp-Gln-NH2
notes: Stapled peptide composition
B7: I-130 (peptide)
peptide: Ac-[αAllylPro]DA[B5(4)]DEAAFV[SeN]FWQ-NH2
modifications: staple 1-4, 4-11
notes: as for B1
B8: I-124 (peptide)
peptide: XDAXDNAAFVXFWQ
modifications: not fully specified; as printed: Ac-PL3-Asp-Ala-B5-Asp-Asn-Ala-Ala-Phe-Val-S8-Phe-Trp-Gln-NH2; staples PL3(1)-B5(4) and B5(4)-S8(11)
notes: as for B1
B9: I-126 (peptide)
peptide: Ac-[αAllylPro]DA[B5(33)]DQAAFV[S8]FWQ-NH2
modifications: staple 1-4, 4-11
notes: as for B1
B10: I-108 (peptide)
peptide: Ac-FDA[R8]DDAA[Phe(3-CONH2)]V[PyrS″]FWQ-NH2
modifications: staple 4-11; not fully specified; printed as Ac-Phe-Asp-Ala-R8-Asp-Asp-Ala-Ala-3CBMF-Val-PyrS-Phe-Trp-Gln-NH2
notes: Stapled peptide composition

The target in this test is T1, full-length beta-Catenin (Uniprot ID …). As to the kind of experiment: Alphascreen competition; biotin-TCF4(10-53) probe with full-length beta-catenin. As to the method: Equal volume of the titrated peptide was added to the plate and incubated for 15 minutes at 20° C. Then 4 uL of donor and 4 uL acceptor beads at 10 ug/mL were added to the plate, for a 16 uL reaction pool and protected from light for 60 minutes at 20° C. prior to read. Reads were performed on a CLARIOstar plate reader (BMG Labtech) in duplicate, and data were fitted to a 1:1 binding model with hill slope using an in-house script. All provided concentrations are final concentrations.
For orientation: In Alpha technology, singlet oxygen from a donor bead excites a nearby acceptor bead.
In the case of B1, the EC50 turned out to be 0.907 µM.
As for Ac-FDA[R8]DDAA[hPhe]V[PyrS″]FWQ-NH2 (staple 4-11; also: earlier-eluting HPLC peak (staple isomer), Stapled peptide composition) [I-117], the figure is ≥ 10 µM; as for B2, 6.17 µM; as for B3, ≥ 10 µM.
Turning to B4, the midpoint of the response, the EC50, lay at 8.82 µM.
Regarding B5, the response was half-maximal at 4.94 µM (EC50).
To Ac-FDA[R8]DDAA[hPhe]V[PyrS(3)]FWQ-NH2 (staple 4-11, Stapled peptide composition) [I-118] belongs 4.36 µM; to Ac-FDA[R8]DDAA[2Nal]V[PyrS″]FWQ-NH2 (staple 4-11, Stapled peptide composition) [I-113], 6.2 µM.
Consider Ac-FDA[R8]DDAA[2Nal]V[PyrS″]FWQ-NH2 (staple 4-11, Stapled peptide composition) [I-112], for which the EC50 was ≥ 10 µM.
To B6 belongs ≥ 10 µM.
As for Ac-FDA[R8]D[2Nal]AAFV[PyrS″]FWQ-NH2 (staple 4-11; also: earlier-eluting HPLC peak (staple isomer), Stapled peptide composition) [I-115], the figure is 4.78 µM; as for Ac-FDA[R8]DDAA[hTyr]V[PyrS(3)]FWQ-NH2 (staple 4-11, Stapled peptide composition) [I-120], 4.55 µM.
The molecule Ac-FDA[R8]D[1Nal]AAFV[PyrS″]FWQ-NH2 (staple 4-11, Stapled peptide composition) [I-114] displayed an EC50 of 4.74 µM.
To Ac-FDA[R8]DDAAFV[PyrS″][Phe(3-CONH2)]WQ-NH2 (staple 4-11, Stapled peptide composition) [I-107] belongs ≥ 10 µM; to B7, 0.797 µM; to B8, 1.28 µM.
To B9 belongs 1.48 µM; to B10, ≥ 10 µM.

Broadly, the EC50 is the concentration at which the effect is half-maximal. Higher therefore signals lower potency in that assay.
